{
  "source": "patent US8404644B2",
  "about": "“Agents with angiogenic and wound healing activity” (Meat & Livestock Australia Limited, priority 2007, dated 2013)",
  "molecules": {"B1": {"name": "Gamma S crystallin: gamma S gel filtration fraction of bovine crystallin extract (protein)", "chain": "SKAGTKITFFEDKNFQGRHYDSDCDCADFHMYLSRCNSIRVEGGTWAVYERPNFAGYMYILPRGEYPEYQHWMGLNDRLSSCRAVHLSSGGQYKLQIFEKGDFNGQMHETTEDCPSIMEQFHMREVHSCKVLEGAWIFYELPNYRGRQYLLDKKEYRKPVDWGAASPAVQSFRRIVE"}, "B2": {"name": "βB2 crystallin: bovine βB2 crystallin protein (SEQ ID No. 1); in b236 the value is that of Wound Heal 2 (protein)", "chain": "ASDHQTQAGKPQPLNPKIIIFEQENFQGHSHELNGPCPNLKETGVEKAGSVLVQAGPWVGYEQANCKGEQFVFEKGEYPRWDSWTSSRRTDSLSSLRPIKVDSQEHKITLYENPNFTGKKMEVIDDDVPSFHAHGYQEKVSSVRVQSGTWVGYQYPGYRGLQYLLEKGDYKDSGDFGAPQPQVQSVRRIRDMQWHQRGAFHPSS", "modifications": "bovine"}, "B3": {"name": "Wound Heal 3: bovine αB crystallin, DEAE Sepharose fast flow fractions 37-47; Group D of Example 3 (protein)", "chain": "MDIAIHHPWIRRPFFPFHSPSRLFDQFFGEHLLESDLFPASTSLSPFYLRPPSFLRAPSWIDTGLSEMRLEKDRFSVNLDVKHFSPEELKVKVLGDVIEVHGKHEERQDEHGFISREFHRKYRIPADVDPLAITSSLSSDGVLTVNGPRKQASGPERTIPITREEKPAVTAAPKK"}},
  "key": {"elastase I [1]": {"target": "T1, elastase I (Sus scrofa, UniProt P00772)", "T1 construct": "purchased Worthington Biochemical Corporation 2280", "T1 sequence (P00772 27-266)": "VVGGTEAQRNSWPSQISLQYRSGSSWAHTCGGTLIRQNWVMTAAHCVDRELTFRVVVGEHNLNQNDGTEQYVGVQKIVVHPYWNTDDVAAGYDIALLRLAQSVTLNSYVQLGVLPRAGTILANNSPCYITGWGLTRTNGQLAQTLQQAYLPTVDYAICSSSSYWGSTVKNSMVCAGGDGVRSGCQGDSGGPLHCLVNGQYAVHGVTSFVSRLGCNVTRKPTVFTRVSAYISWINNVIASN", "assay": "Elastase I inhibitory activity of crystallin fractions", "type": "biochemical", "description": "The bovine crystallin fractions were tested for ability to inhibit elastase I activity."}, "[2]": {"assay": "Stability to heat treatment", "type": "physicochemical", "description": "(§1) The second study investigated the angiogenic potential of purified crystallin proteins. Briefly, βB3 crystallin was prepared by heating (97-99° C. for 3 minutes, supernatant collected by centrifugation) and was essentially homogenous. Alpha A crystallin and αB crystallin samples were prepared by ion exchange chromatography as described above and were also essentially homogenous. The Wound Heal 1-3 preparations were also tested in this study."}, "rat aortic ring": {"system": "rat aortic ring", "assay": "Rat aortic ring angiogenesis assay (Example 4.3)", "type": "cell-based, Lewis rat", "conditions": "second study, 200 μg/mL", "description": "Four separate studies were carried out to determine the angiogenic effect of crystallin preparations. Each sample was assayed in triplicate. A positive control (VEGF) and a vehicle control containing PBS was also run in triplicate. […] Preliminary statistical significance was assessed with an independent Student t-test at α<0.05. Graphical representation of averages +/− standard errors were determined.\nThe first study investigated the angiogenic potential of bovine fractions prepared by gel filtration analysis as described in Example 3.2. As described in that Example, the alpha fraction contained αA and αB crystallin, the β H fraction contained all β crystallins, the β L1 fractions contained a sub-fraction of beta crystallins and a high content of βB2 crystallin and beta B3 crystallin and the beta L2 fraction contained only βB2 crystallin and βA3 crystallin.\nas §1\nThe third study investigated the angiogenic potential of ovine crystallin proteins compared to their bovine equivalents. Both bovine and ovine crystallin proteins were purified essentially to homogeneity by RP. HPLC using a C4 column, as described below in Example 5. Homogeneity was confirmed by SDS-PAGE. The effect of elastase I treatment of βB2 crystallin was also investigated by comparing the angiogenic potential of intact βB2 crystallin (i.e. undigested) with elastase I digested βB2 crystallin. Elastase I treatment releases the N-terminal and C-terminal extensions of the crystallin protein leaving a globular protein that is monomeric.\nIn the final study, ovine βB2 crystallin was tested alone or in combination with indoleamine 2,3-dioxygenase (IDO) and ovine alpha B crystallin was tested alone or in combination with tryptophan dioxygenase (TDO)\nBriefly, in each study, a single Lewis rat was euthanised and its aorta transferred to a 15 mL Falcon tube containing 10 mL of MCBD-131 medium and stored on ice. After transferring the aorta to a 92×17 mm petri dish containing 10 mL of ice cold MCDB-131, the outer fatty tissue was removed under an Olympus SZ-60 Dissecting microscope. This was undertaken with fibre optic lamp illumination. The aorta was then cut into sequential rings approximately 2 mm in size. Connective tissue was removed with micro scissors and forceps from the outside of the individual rings. Clean rings were stored in a separate petri dish in sterile MCDB-131 medium. Rings were pre-incubated overnight at 37° C. in an atmosphere of 97% air/3% CO2.\nTo prepare gel sandwiches, 75 mg of fibrinogen was added to 25 mL MCDB-131 medium and shaken gently on a rocker roller for 5 minutes. 3 ml of MCDB-131/fibrinogen solution was added to a 15 mL Falcon tube, followed by 10 μL of thrombin and quickly mixed. A 0.4 mL volume of this fibrinogen-thrombin solution was added to each well on a 24 well plate, 6 wells at a time. Aortic rings were then placed on the setting gel, pushed gently into the gel and left for 45 minutes. These steps were then repeated so each ring was covered with 0.4 mL of gel. Gels were left to set at room temperature. […] The plate was then placed in incubator (37° C., 97% air/3% CO2).\nCulture plate were examined daily for signs of infection (fungal growth or yellowing of media) in the wells using an inverted microscope. The growth of microvessels from their perimeters was also observed. Digital photographs of each well were taken seven days after plating using a Pixera PVC-100C digital camera mounted on an OLYMPUS CK-12 microscope and stored on a Macintosh Computer. […]"}, "[3]": {"assay": "Body weight during wound healing assay (Example 3.6)", "type": "in vivo, male Lewis rats", "conditions": "PBS control returned by day 11", "description": "(§2) Body weights were measured on days 1, 3, 5, 7, 9, 11, 13, 15, 17, 19, 21 and 23 and deviations from original body weights (on day 1) calculated for each animal. On the same days, photographs were taken using a Canon Digital Eos 20D with a F2.8 Macro lens. Photographs were downloaded and wound areas measured using NIH Image J 1.633u software (National Institutes of Health (NIH), Rockville Pike, Bethesda, Md., United States). A laser speckle image was also taken at the same time as each space photograph was taken. Animals were weighed every second day when the photographic record of wound closure rate was also made."}, "elastase I [4]": {"target": "T1, elastase I", "assay": "Chaperone activity: protection of elastase I from heat denaturation", "type": "biochemical", "conditions": "boiling water bath for 30 seconds", "description": "Bovine crystallin fractions were tested for ability to protect the proteases elastase I, trypsin and chymotrypsin from heat denaturation. Briefly, the proteases were heated in a boiling water bath for 30 seconds in the presence or absence of the crystallin fractions."}, "[5]": {"system": "full thickness 12 mm wound", "assay": "Wound healing assay (Example 3.6)", "type": "in vivo, male Lewis rats", "conditions": "for Wound areas: mg/wound: Wound heal 1 0.01, Wound heal 2 0.1, Wound heal 3 1.0, Aloe vera 20; for wounds larger than wounds on rats receiving buffered saline only: 1.0 mg/wound", "description": "Thirty male Lewis rats were divided into 5 groups of 6 rats as outlined below in Table 7. Rats were age and weight matched. Rats were permitted rodent diet and water ad libitum throughout the study.\nThe animals were weighed two days before the start of the trial and weights grouped from lightest to heaviest. Animals were then randomly assigned to groups based on body weights, using 5×5 Latin squares so that group means were as similar as possible.\nApproximately 30 minutes before wounding, each animal was given a subcutaneous injection of Temgesic at the base of the neck (0.075 mg/kg body weight). Each animal was anaesthetised using 3% halothane in oxygen. Once the pedal reflexes had been abolished, the animals were shaved from the base of the skull to the hind limb area using electric clippers. The skin on each rat was disinfected using 0.5% chlorhexidine in 70% ethanol. For each animal, the distance from the base of the skull to the top of the hip joint was measured and the wound position marked with a black felt tip pen, 6 cm below the base of the skull along the spinal axis.\nUsing asceptic techniques a full thickness incision was made at this position using a sterile 12 mm biopsy punch. Any bleeding was removed using cotton swabs. Care was taken that the punch was dry and that no debris (eg., skin, hair) entered the wounds. […] After photography of each wound using a Canon Digital EOS 20D camera with a F2.8 Macro lens, an aliquot of the sample was applied to the wounds on the rats in Groups A, B, D and E using a Gilson Microman CP 100 positive displacement pipette. The biopsy punch was wiped inside with a swab soaked in sterile saline to remove any tissue fluids and/or debris. The punch was then immersed in 70% ethanol before use on the next animal.\nFor applications and photographs after day 1 the animals were restrained without being anaesthetised.\nas §2\nThe redness and swelling of each wound were individually scored from visual observation. These were scored on a scale of 0-3 as follows:\nDescriptive statistics were evaluated. […] Major analyses were performed on all data points collected. Preliminary analyses were undertaken on control wounds only using t-tests. Univariate ANOVAs were used to assess differences between treatment and controls and samples nested within treatments. A separate ANOVA assessed whether there was a dose response using the treatment samples only. Assumptions for normality were tested using q-q plots on studentized residuals and heterogeneity of variances were tested using Levene's tests. SPSS 11 for Mac OSX was used for assumption testing and statistical analysis."}},
  "data": [
    {"molecule": "B1", "values": [
      {"measurement": "elastase I inhibitory activity (in words)", "setting": "elastase I [1]", "value": "considerable elastase inhibitory activity"}
    ]},
    {"molecule": "B2", "values": [
      {"measurement": "stability to heat treatment (in words)", "setting": "[2]", "value": "unstable to heat treatment"},
      {"measurement": "increase in microvessel growth (stimulatory)", "setting": "rat aortic ring", "value": 21.83, "unit": "%"}
    ]},
    {"molecule": "B3", "values": [
      {"measurement": "day by which mean body weight had returned to the starting (pre-wounding) weight", "setting": "[3]", "value": "≤ 12", "unit": "days"},
      {"measurement": "chaperone activity: protection of elastase I from heat denaturation (in words)", "setting": "elastase I [4]", "value": "Chaperone activity was observed"},
      {"measurement": "Wound areas", "setting": "[5]; Day 1 (=100)", "value": 100},
      {"measurement": "Wound areas", "setting": "[5]; Day 3", "value": 93},
      {"measurement": "Wound areas", "setting": "[5]; Day 5", "value": 82},
      {"measurement": "Wound areas", "setting": "[5]; Day 7", "value": 76},
      {"measurement": "Wound areas", "setting": "[5]; Day 9", "value": 58},
      {"measurement": "Wound areas", "setting": "[5]; Day 11", "value": 34},
      {"measurement": "Wound areas", "setting": "[5]; Day 13", "value": 23},
      {"measurement": "Wound areas", "setting": "[5]; Day 15", "value": 15},
      {"measurement": "Wound areas", "setting": "[5]; Day 17", "value": 9},
      {"measurement": "Wound areas", "setting": "[5]; Day 19", "value": 5},
      {"measurement": "Wound areas", "setting": "[5]; Day 21", "value": 2.5},
      {"measurement": "Wound areas", "setting": "[5]; Day 23", "value": 1.4},
      {"measurement": "wounds larger than wounds on rats receiving buffered saline only", "setting": "[5]; day 3", "value": 8.8, "unit": "%"},
      {"measurement": "wounds larger than wounds on rats receiving buffered saline only", "setting": "[5]; day 7", "value": 7.7, "unit": "%"},
      {"measurement": "wounds larger than wounds on rats receiving buffered saline only", "setting": "[5]; day 11", "value": 28.7, "unit": "%"},
      {"measurement": "healing rate compared to Control group (PBS), in words", "setting": "[5]; rat, in vivo", "value": "inhibited the rate of healing"},
      {"measurement": "% of Control", "setting": "rat aortic ring; microvessel growth", "value": 93.09, "unit": "%"}
    ]}
  ]
}
